The text below walks through data of US20070185028A1, “Compositions and methods for treatment of protein misfolding and protein aggregation diseases” (priority 2004, published 2007).

No end group written: not given here.

For data set [1] the following is noted: as provided by manufacturer (Mimotopes); cited from earlier work.
The target in data set [2] is beta amyloid (Homo sapiens, UniProt P05067). The experiment in a line: αB crystallin protein pin array, binding of beta amyloid. Conditions: immobilized 8-mer peptide; absorption at 450 nm. From the text:
αB Crystallin peptides that bind the target protein beta-amyloid were identified by screening an αB crystallin protein pin array, which provides a systematic method for evaluating interactions between peptides corresponding to residues 1-175 of human αB crystallin and selected target proteins in a parallel and simultaneous manner.
Peptides were synthesized on derivatized polyethylene pins arranged in a microtiter plate format. Each peptide was 8 amino acids in length and consecutive peptides were offset by 2 amino acids. All peptides were covalently bonded to the surface plastic pins. The first immobilized peptide was 1MDIAIHHP8 and the last peptide was 168PAVTAAPK175 for the human αB crystallin.
After synthesis, the pins were pre-coated at room temperature with 2% Bovine Serum Albumin (BSA), 0.1% Tween-20 and 0.1% Sodium azide in 10 mM phosphate buffered saline pH 7.2 (PBS) for 1 hr, and washed three times for 10 mins each with 10 mM PBS. To screen for binding to the peptides, fixed concentrations of the target protein beta amyloid was dissolved in 10 mM PBS, containing 0.05% Tween-20, added to each well and incubated for 1 hr at room temperature. The pin array was washed three times for 10 mins each with 10 mM PBS, containing 0.05% Tween-20. Monoclonal or polyclonal primary antibodies for the target protein beta amyloid was diluted into PBS buffer, added to each well and incubated for 1 hr at room temperature. Subsequently, the pin array was washed three times for 10 mins each with 10 mM PBS containing 0.05% Tween-20. Anti-rabbit horse-radish peroxidase conjugate secondary antibodies was diluted into PBS buffer, added to each well and incubated for 1 hr at room temperature. The pin array was washed three times for 10 mins each with 10 mM PBS containing 0.05% Tween-20. A chromogenic substrate of horse-radish peroxidase 3,3′,5,5′-Tetramethylbenzidine (TMB) (Pharmingen, San Diego, Calif.) which is colorless was added, and the reaction was carried out for 45 min.
The reaction was stopped by adding 6N sulfuric acid, which changes the color from blue to yellow. The absorption at 450 nm was measured by an ELISA reader (BioTek, Winooski, Vt.).
The pin array was regenerated by sonication in a water bath (VWR Aquasonic, West Chester, Pa.) with 100 mM PBS, containing 1% Sodium dodecyl sulfate (SDS) and 0.1% 2-Mercaptoethanol@60° C. for 10 mins. Next, the pin array was rinsed three times in deionized water, preheated to 60° C. for 30 secs each time, and shaken in water preheated at 60° C. for 30 min. The pin array was then washed with methanol at 60° C. for 15 secs and air-dried and stored @−20° C. for future use. Each target protein was assayed 2-5 times against the human αB crystallin protein pin array peptides to verify the reproducibility of the results. Peptides numbered 5, 7, 8, 9, 13, 19, 22, 23, 24, 27, 35, 38, 45, 51, 52, 56, 57, 61, 66, 71, 72, and 79 in Table 2 reproducibly tested positive in the protein pin assay.

In data set [3] the test system is bovine βH crystallin. Kind of data set: αB crystallin protein pin array with βH crystallin. The data set is classed as binding. The following applies: unheated βH crystallin, 23° C.; similar maxima pre-heated 45° C. From the text: Synthesis of Pins, binding and detection of peptides binding to ligand proteins. The αB crystallin protein pin array was used to measure the interaction between peptides and chaperone target proteins including bovine βH crystallin, human γD crystallin, equine alcohol dehydrogenase (ADH) and porcine citrate synthase (CS) as described (FIG. 12). Ghosh and Clark, Protein Sci 14: 684-95, 2005.
Refer to the methods section for detailed protocols. The absorbance corresponding to the blue coloration in each well was measured at λ=450 nm and plotted against the amino acid sequence of the corresponding peptide in that well (FIGS. 13 and 14). Wells containing peptides that have strong interactions with target proteins are dark blue and wells containing peptides that have weak or no interaction with target proteins are light blue or clear.
The purity of the target proteins used in the pin array assays, bovine βH crystallin, human γD crystallin, equine alcohol dehydrogenase (ADH) and porcine citrate synthase (CS) were determined to be >90% by SDS-PAGE. In addition, primary antibodies for each target protein were specific to that target protein and consequently contaminating proteins that may bind to the peptides will not be detected. Eighty-four sequential and overlapping peptide fragments corresponding to residues 1-175 of human αB crystallin were synthesized employing a simultaneous peptide synthesis strategy developed by Geysen, called Multipin Peptide Synthesis (Mimotopes, San Diego, Calif.). Geysen, Southeast Asian J Trop Med Public Health 21: 523-33, 1990; Chin et al., J Org Chem 62: 538-539, 1997. Peptides were immobilized on derivatized polyethylene pins arranged in a microtiter ELISA plate format. Each peptide was eight amino acids in length and consecutive peptides were offset by two amino acids. All peptides were bound covalently to the surface of the plastic pins. The first peptide was 1MDIAIHHP8 and the last peptide was 168PAVTAAPK175 for human αB crystallin.
Ghosh and Clark, Protein Sci 14: 684-95, 2005. […] The intensity of the blue color in the wells was measured at 450 nm using an ELISA plate-reader (BioTek, Winooski, Vt.). The intensity of the blue color (plotted on the X-axis) was a measure of the interaction between αB crystallin peptides (plotted on the Y-axis) and target proteins. To measure the effect of temperature on the interactions between interactive peptides and the target proteins, the target proteins were heated in a water-bath at 45° C. for fifteen minutes prior to use. Pin arrays are unable to differentiate between monomers, dimers or oligomers of target proteins that exist in solution. Instead, pin arrays are very sensitive detectors of interactions between individual peptides and the entire population (monomers, dimers or oligomers) of specific target proteins that may exist in solution under specific conditions. Each target protein was assayed two to five times. A single pin array was used for all experiments and no change in interactions was observed after more than thirty repetitions. The last three peptides of the protein pin array, 163REEKPAVT170, 165EKPAVTAA172, 167PAVTAAPK174, correspond to the epitope (163REEKPAVTAAPKK175) recognized by the primary antibody for human αB crystallin. A positive reaction is observed for these three peptides in the absence of human αB crystallin as the ligand due to direct binding of the anti-human αB crystallin antibody to these three peptides. The loss of efficiency for the pin array was measured using this assay. The loss of efficiency for the pin array was determined to be <5% by after more than 30 assays.
Protein pin arrays enabled the identification of interactive sequences necessary for the chaperone activity of human αB crystallin. Interactions between immobilized 8-mer human αB crystallin peptides and unheated and pre-heated βH crystallin, a natural protein constitute of lens cells, were measured as absorbances at λ=450 nm at 23° C. […]

Take APSWFDTG [Peptide 29]: the Hydrophobicity in data set [1] is listed as 0.56.
As for DEHGFISR [Peptide 55], the Hydrophobicity in data set [1] is recorded as 0.16.
Consider DPLTITSS [Peptide 65], for which, in data set [1], the Hydrophobicity is recorded as 0.49.
As for DRFSVNLD [Peptide 37], in data set [1], the Hydrophobicity is listed as 0.19.
In the case of DVDPLTIT [Peptide 64], in data set [1], the Hydrophobicity is given as 0.55.
Take EELKVKVL [Peptide 44]: in data set [1], the Hydrophobicity is recorded as 0.32.
With EERQDEHG [Peptide 53], the Hydrophobicity in data set [1] is −0.47.
Consider EKDRFSVN [Peptide 36], for which, in data set [1], the Hydrophobicity was −0.13.
As for EKPAVTAA [Peptide 83], the Hydrophobicity in data set [1] is 0.19.
EMRLEKDR [Peptide 34]: the Hydrophobicity in data set [1] is on record as −0.27.
Regarding EVHGKHEE [Peptide 50], the Hydrophobicity in data set [1] is −0.18.
Consider FDTGLSEM [Peptide 31], for which the Hydrophobicity in data set [1] was 0.44.
For the sequence FHSPSRLF [Peptide 9], the “binding of beta amyloid in the protein pin assay” value (“binding of beta amyloid” below) in data set [2] is “positive”. Moreover, the Hydrophobicity in data set [1] is listed as 0.63.
Turning to GDVIEVHG [Peptide 48], the Hydrophobicity in data set [1] is on record as 0.37.
In the case of GEHLLESD [Peptide 15], the Hydrophobicity in data set [1] is recorded as 0.18.
In the case of GPRKQVSG [Peptide 74], the Hydrophobicity in data set [1] is recorded as −0.04.
As to HESPEELK [Peptide 42], the Hydrophobicity in data set [1] is reported as 0.25.
Consider HGKHEERQ [Peptide 51], for which the “binding of beta amyloid” value in data set [2] is “positive”. The Hydrophobicity in data set [1] is given as −0.41.
Take HLLESDLF [Peptide 16]: in data set [1], the Hydrophobicity is 0.7.
Regarding HPWIRRPF [Peptide 4], the Hydrophobicity in data set [1] is recorded as 0.67.
With HRKYRIPA [Peptide 60], in data set [1], the Hydrophobicity is 0.11.
IHHPWIRR [Peptide 3]: in data set [1], the Hydrophobicity is on record as 0.6.
Consider IPITREEK [Peptide 80], for which, in data set [1], the Hydrophobicity is 0.16.
For the sequence ITREEKPA [Peptide 81], the Hydrophobicity in data set [1] was −0.02.
On to ITSSLSSD [Peptide 67], for which the Hydrophobicity in data set [1] was 0.35.
With KHEERQDE [Peptide 52], the “binding of beta amyloid” value in data set [2] is given as “positive”. The Hydrophobicity in data set [1] is on record as −0.6.
Regarding KYRIPADV [Peptide 61], the “binding of beta amyloid” value in data set [2] is on record as “positive”. Moreover, the “absorbance at 450 nm, interaction with βH crystallin” value (shortened to “absorbance at 450 nm, interaction”) in data set [3] is “Maximum absorbances”. Moreover, the Hydrophobicity in data set [1] was 0.28.
Consider LDVKHFSP [Peptide 40], for which the Hydrophobicity in data set [1] was 0.47.
On to “LESDLFPT (also: covalently bound to polyethylene pin) [Peptide 17]”, for which, in data set [1], the Hydrophobicity was 0.59.
For LFDQFFGE [Peptide 12], the Hydrophobicity in data set [1] was 0.68.
For the sequence LKVKVLGD [Peptide 45], the “binding of beta amyloid” value in data set [2] was “positive”. For the same sequence, in data set [3], the “absorbance at 450 nm, interaction” value is “Maximum absorbances”. Also, in data set [1], the Hydrophobicity was 0.39.
Take LSEMRLEK [Peptide 33]: in data set [1], the Hydrophobicity is listed as 0.16.
For the sequence LSSDGVLT [Peptide 69], in data set [1], the Hydrophobicity is reported as 0.5.
With MDIAIHHP [Peptide 1], in data set [1], the Hydrophobicity is reported as 0.67.
With PADVDPLT [Peptide 63], the Hydrophobicity in data set [1] was 0.42.
Regarding PAVTAAPK [Peptide 84], in data set [1], the Hydrophobicity is 0.36.
Turning to PERTIPIT [Peptide 78], the Hydrophobicity in data set [1] is 0.49.
On to PPSFLRAP [Peptide 26], for which, in data set [3], the “absorbance at 450 nm, interaction” value is reported as “Maximum absorbances”. Besides, the Hydrophobicity in data set [1] is reported as 0.61.
Turning to PTSTSLSP [Peptide 20], in data set [1], the Hydrophobicity is listed as 0.44.
Take QVSGPERT [Peptide 76]: in data set [1], the Hydrophobicity was 0.04.
Turning to REEKPAVT [Peptide 82], the Hydrophobicity in data set [1] is −0.1.
Take RIPADVDP [Peptide 62]: the Hydrophobicity in data set [1] was 0.28.
As for RKQVSGPE [Peptide 75], the Hydrophobicity in data set [1] was −0.12.
RQDEHGFI [Peptide 54]: in data set [1], the Hydrophobicity was 0.14.
With RRPFFPFH [Peptide 6], the Hydrophobicity in data set [1] is reported as 0.62.
SDGVLTVN [Peptide 70]: the Hydrophobicity in data set [1] is listed as 0.37.
As to SDLFPTST [Peptide 18], in data set [1], the Hydrophobicity is given as 0.49.
As for SGPERTIP [Peptide 77], in data set [1], the Hydrophobicity is on record as 0.23.
Turning to SPEELKVK [Peptide 43], the Hydrophobicity in data set [1] is listed as 0.04.
Turning to SPFYLRPP [Peptide 23], the “binding of beta amyloid” value in data set [2] is given as “positive”. Further, the “absorbance at 450 nm, interaction” value in data set [3] is recorded as “Maximum absorbances”. In addition, in data set [1], the Hydrophobicity is 0.7.
For SPSRLFDQ [Peptide 10], in data set [1], the Hydrophobicity is 0.27.
Regarding SRLFDQFF [Peptide 11], in data set [1], the Hydrophobicity was 0.63.
Take SSLSSDGV [Peptide 68]: the Hydrophobicity in data set [1] was 0.25.
Turning to STSLSPFY [Peptide 21], the Hydrophobicity in data set [1] is 0.66.
Take SWFDTGLS [Peptide 30]: in data set [1], the Hydrophobicity is listed as 0.64.
TGLSEMRL [Peptide 32]: the Hydrophobicity in data set [1] is listed as 0.4.
On to VIEVHGKH [Peptide 49], for which the Hydrophobicity in data set [1] was 0.36.
For the sequence VKHFSPEE [Peptide 41], in data set [1], the Hydrophobicity is recorded as 0.19.
Turning to VKVLGDVI [Peptide 46], in data set [1], the Hydrophobicity is given as 0.68.
For the sequence VLGDVIEV [Peptide 47], in data set [1], the Hydrophobicity was 0.72.
For VNGPRKQV [Peptide 73], the Hydrophobicity in data set [1] is on record as 0.04.
In the case of VNLDVKHF [Peptide 39], in data set [1], the Hydrophobicity was 0.46.
